Source: publication PMC2757176

Molecular target: PLC-γ1 (UniProt Q62077)
Assay: IP of PLC-γ1, blot for EAT-2
Details: reference: wild type EGFP-EAT-2; sites Y120,Y127

**Q.** “EAT-2 (from UniProt O35324) Y120F + Y127F double mutant (FF)” was tested. Which “binding against the reference” value did it give?
**A.** lost
